{"source": "patent US20250152746A1", "about": "“BASE EDITING OF ANGPTL3 AND METHODS OF USING SAME FOR TREATMENT OF DISEASE” (Verve Therapeutics, Inc., priority 2020, published 2025)", "molecules": {"B1": {"name": "GA113: ANGPTL3 gRNA; protospacer ATTCTGGAGGAAATAACTAG (SEQ ID NO: 111) (nucleic acid)", "guide": "AUTCTGGAGGAAATAACTAGGTTTTAGAGCTAGAAATAGCAAGTTAAAATAAGGCTAGTCCGTTATCAACTTGAAAAAGTGGCACCGAGTCGGTGCTTTT", "modifications": "2'-O-methyl at 1, 2, other sugars, backbone and T or U not given here; further chemistry not fully specified"}, "B2": {"name": "GA116: ANGPTL3 gRNA; protospacer GTAGAATTTTTTCTTCTAGG (SEQ ID NO: 114) (nucleic acid)", "guide": "GUAGAATTTTTTCTTCTAGGGTTTTAGAGCTAGAAATAGCAAGTTAAAATAAGGCTAGTCCGTTATCAACTTGAAAAAGTGGCACCGAGTCGGTGCTTTT", "modifications": "2'-O-methyl at 1, 2, other sugars, backbone and T or U not given here; further chemistry not fully specified"}, "B3": {"name": "GA117: ANGPTL3 gRNA; protospacer ACTACAAGTCAAAAATGAAG (SEQ ID NO: 115) (nucleic acid)", "guide": "ACTACAAGTCAAAAATGAAGGTTTTAGAGCTAGAAATAGCAAGTTAAAATAAGGCTAGTCCGTTATCAACTTGAAAAAGTGGCACCGAGTCGGTGCTTTT", "modifications": "2'-O-methyl at 1, 2, other sugars and backbone not given here; further chemistry not fully specified"}, "B4": {"name": "GA122: ANGPTL3 gRNA; protospacer CTTTTATTTGACTATGCTGT (SEQ ID NO: 120) (nucleic acid)", "guide": "CUTTTATTTGACTATGCTGTGTTTTAGAGCTAGAAATAGCAAGTTAAAATAAGGCTAGTCCGTTATCAACTTGAAAAAGTGGCACCGAGTCGGTGCTTTT", "modifications": "2'-O-methyl at 1, 2, other sugars, backbone and T or U not given here; further chemistry not fully specified"}, "B5": {"name": "GA125: ANGPTL3 gRNA; protospacer TGATGGTAAGACACTTTGGT (SEQ ID NO: 123) (nucleic acid)", "guide": "UGATGGTAAGACACTTTGGTGTTTTAGAGCTAGAAATAGCAAGTTAAAATAAGGCTAGTCCGTTATCAACTTGAAAAAGTGGCACCGAGTCGGTGCTTTT", "modifications": "2'-O-methyl at 1, 2, other sugars, backbone and T or U not given here; further chemistry not fully specified"}, "B6": {"name": "GA126: ANGPTL3 gRNA; protospacer GGAGTAGTTCTTGGTGCTCT (SEQ ID NO: 124) (nucleic acid)", "guide": "GGAGTAGTTCTTGGTGCTCTGTTTTAGAGCTAGAAATAGCAAGTTAAAATAAGGCTAGTCCGTTATCAACTTGAAAAAGTGGCACCGAGTCGGTGCTTTT", "modifications": "2'-O-methyl at 1, 2, other sugars and backbone not given here; further chemistry not fully specified"}, "B7": {"name": "GA127: ANGPTL3 gRNA; protospacer AACATGATGGTAAGACACTT (SEQ ID NO: 125) (nucleic acid)", "guide": "AACATGATGGTAAGACACTTGTTTTAGAGCTAGAAATAGCAAGTTAAAATAAGGCTAGTCCGTTATCAACTTGAAAAAGTGGCACCGAGTCGGTGCTTTT", "modifications": "2'-O-methyl at 1, 2, other sugars and backbone not given here; further chemistry not fully specified"}, "B8": {"name": "GA128: ANGPTL3 gRNA; protospacer TGAAGAAAGGGAGTAGTTCT (SEQ ID NO: 126) (nucleic acid)", "guide": "UGAAGAAAGGGAGTAGTTCTGTTTTAGAGCTAGAAATAGCAAGTTAAAATAAGGCTAGTCCGTTATCAACTTGAAAAAGTGGCACCGAGTCGGTGCTTTT", "modifications": "2'-O-methyl at 1, 2, other sugars, backbone and T or U not given here; further chemistry not fully specified"}, "B9": {"name": "GA130: ANGPTL3 gRNA; protospacer ATGATGGTAAGACACTTTGG (SEQ ID NO: 128) (nucleic acid)", "guide": "AUGATGGTAAGACACTTTGGGTTTTAGAGCTAGAAATAGCAAGTTAAAATAAGGCTAGTCCGTTATCAACTTGAAAAAGTGGCACCGAGTCGGTGCTTTT", "modifications": "2'-O-methyl at 1, 2, other sugars, backbone and T or U not given here; further chemistry not fully specified"}, "B10": {"name": "GA131: ANGPTL3 gRNA; protospacer GAAGATAGAGAAATTTCTGT (SEQ ID NO: 129) (nucleic acid)", "guide": "GAAGATAGAGAAATTTCTGTGTTTTAGAGCTAGAAATAGCAAGTTAAAATAAGGCTAGTCCGTTATCAACTTGAAAAAGTGGCACCGAGTCGGTGCTTTT", "modifications": "2'-O-methyl at 1, 2, other sugars and backbone not given here; further chemistry not fully specified"}, "B11": {"name": "GA132: ANGPTL3 gRNA; protospacer GGAAGATAGAGAAATTTCTG (SEQ ID NO: 130) (nucleic acid)", "guide": "GGAAGATAGAGAAATTTCTGGTTTTAGAGCTAGAAATAGCAAGTTAAAATAAGGCTAGTCCGTTATCAACTTGAAAAAGTGGCACCGAGTCGGTGCTTTT", "modifications": "2'-O-methyl at 1, 2, other sugars and backbone not given here; further chemistry not fully specified"}, "B12": {"name": "GA137: ANGPTL3 gRNA; protospacer TATCAGGTAAAACCTGTCTA (SEQ ID NO: 135) (nucleic acid)", "guide": "UATCAGGTAAAACCTGTCTAGTTTTAGAGCTAGAAATAGCAAGTTAAAATAAGGCTAGTCCGTTATCAACTTGAAAAAGTGGCACCGAGTCGGTGCTTTT", "modifications": "2'-O-methyl at 1, 2, other sugars, backbone and T or U not given here; further chemistry not fully specified"}, "B13": {"name": "GA141: ANGPTL3 gRNA; protospacer TTGAGAGTTGCTGGGTCTGA (SEQ ID NO: 139) (nucleic acid)", "guide": "UUGAGAGTTGCTGGGTCTGAGTTTTAGAGCTAGAAATAGCAAGTTAAAATAAGGCTAGTCCGTTATCAACTTGAAAAAGTGGCACCGAGTCGGTGCTTTT", "modifications": "2'-O-methyl at 1, 2, other sugars, backbone and T or U not given here; further chemistry not fully specified"}}, "data": [{"system": "ANGPTL3 gene", "experiment": "ANGPTL3 gRNA/SpCas9 editing in primary cynomolgus hepatocytes (Table 3)", "type": "cell-based, cynomolgus monkey", "procedure": "(§1) In set of experiments, PCSK9 gRNAs were co-transfected with an equivalent amount (1:1 ratio by weight) of in vitro transcribed commercially available SpCas9 mRNA MS002 purchased from TriLink Biotechnologies into primary human hepatocytes at 2500, 500, or 100 ng/RNA/mL and processed as described in detailed methods. Extracted genomic DNA was analyzed for gene editing at the target site with next-generation sequencing of PCR amplicons generated around the target sites. Samples were prepared using the Nextera XT DNA library preparation kit (Illumina) according to the manufacturer's protocol. Briefly, two rounds of PCR were performed first to amplify the region of interest and second to add DNA sequences required for next generation sequencing and sample identification to the initial product. The final amplicon was sequenced on the Illumina MiSeq instrument according to the manufacturer's protocol. A wide range of editing activities (Table 2) were observed. In a second set of experiments, ANGPTL3 gRNAs were co-transfected with an equivalent amount of in vitro transcribed SpCas9 mRNA (1:1 ratio by weight) into primary human hepatocytes and processed and analyzed similarly (Table 3).\n(§2) Plating, culturing, and transfection of primary hepatocytes. Primary human liver hepatocytes (PHH) and primary cynomolgus liver hepatocytes (PCH) from BioIVT were cultured per the manufacturer's protocol. Briefly, primary human hepatocytes and primary cyno hepatocytes were obtained as frozen aliquots from BioIVT. Four lots of primary human hepatocytes, each derived from a de-identified individual donor, were used for the experiments: STL (main donor) was used for all experiments, including screening experiments and off-target experiments; HLY, JLP, and TLY were used for off-target experiments. The HFG lot of primary cyno hepatocytes were used for experiments. Following the manufacturer's instructions, cells were thawed and rinsed prior to plating in 24-well plates that had been coated with bovine collagen overnight, with a density of approximate 350,000 cells/well in INVITROGRO hepatocyte medium supplemented with TORPEDO antibiotic mix (BioIVT). The cells were thawed and resuspended in hepatocyte thawing medium followed by centrifugation at 100 g for 10 min at 4° C. The supernatant was discarded, and the pelleted cells resuspended in hepatocyte plating medium. Each vial contains approximately 5 million cells that were used for plating one 24-well plate. Plated cells were allowed to settle and adhere for 4-6 h in a tissue culture incubator at 37° C. under 5% CO2 atmosphere. After incubation, cells were checked for monolayer formation. The incubating media were then replaced with fresh hepatocyte maintenance media (complete INVITROGRO medium obtained from BioIVT, the cell line provider). The cells thus became ready for transfection. Each of the gRNAs were co-transfected with an equivalent amount of in vitro transcribed ABE8.8 mRNA (1:1 ratio by molecular weight) into primary human hepatocytes via MessengerMax reagent (Lipofectamine), using various dilutions to assess for editing activity at different concentrations of test article. MessengerMAX from Thermo Fisher is used for transfection. Solution A: desired amount of guide RNA is mixed with 1:1 wt ratio of mRNA in OptiMEM. Solution B: MessengerMAX in OptiMEM. After mixing solutions A and B, the mixture was incubated at room temperature for 20 min. 60 μL of the incubated solution was added dropwise to each cell wells. For protospacer sequences that were a perfect match to the corresponding cynomolgous monkey PCSK9 or ANGPTL3 gene sequence, each gRNA was also co-transfected with an equivalent amount of ABE8.8 mRNA (1:1 ratio by molecular weight) into primary cynomolgous hepatocytes, and followed the same transfection protocol. The cells were then allowed to remain at 37° C. for 3 days. […]", "units": {"Cyno Primary Hepatocyte Editing % 100 ng/mL": "%", "Cyno Primary Hepatocyte Editing % 500 ng/ml": "%"}, "values": [{"molecule": "B1", "Cyno Primary Hepatocyte Editing % 100 ng/mL": 12.07, "Cyno Primary Hepatocyte Editing % 500 ng/ml": 26.67}, {"molecule": "B2", "Cyno Primary Hepatocyte Editing % 100 ng/mL": 10.84, "Cyno Primary Hepatocyte Editing % 500 ng/ml": 19.83}, {"molecule": "B3", "Cyno Primary Hepatocyte Editing % 100 ng/mL": 10.01, "Cyno Primary Hepatocyte Editing % 500 ng/ml": 26.11}, {"molecule": "B4", "Cyno Primary Hepatocyte Editing % 100 ng/mL": 7.28, "Cyno Primary Hepatocyte Editing % 500 ng/ml": 16.76}, {"molecule": "B5", "Cyno Primary Hepatocyte Editing % 100 ng/mL": 12.91, "Cyno Primary Hepatocyte Editing % 500 ng/ml": 19.72}, {"molecule": "B6", "Cyno Primary Hepatocyte Editing % 100 ng/mL": 8.29, "Cyno Primary Hepatocyte Editing % 500 ng/ml": 17.57}, {"molecule": "B7", "Cyno Primary Hepatocyte Editing % 100 ng/mL": 19.89, "Cyno Primary Hepatocyte Editing % 500 ng/ml": 33.67}, {"molecule": "B8", "Cyno Primary Hepatocyte Editing % 100 ng/mL": 0.19, "Cyno Primary Hepatocyte Editing % 500 ng/ml": 32.55}, {"molecule": "B9", "Cyno Primary Hepatocyte Editing % 100 ng/mL": 14.60, "Cyno Primary Hepatocyte Editing % 500 ng/ml": 25.90}, {"molecule": "B10", "Cyno Primary Hepatocyte Editing % 100 ng/mL": 10.10, "Cyno Primary Hepatocyte Editing % 500 ng/ml": 27.57}, {"molecule": "B11", "Cyno Primary Hepatocyte Editing % 100 ng/mL": 15, "Cyno Primary Hepatocyte Editing % 500 ng/ml": 26}, {"molecule": "B12", "Cyno Primary Hepatocyte Editing % 100 ng/mL": 28.01, "Cyno Primary Hepatocyte Editing % 500 ng/ml": 30.57}, {"molecule": "B13", "Cyno Primary Hepatocyte Editing % 100 ng/mL": 5.49, "Cyno Primary Hepatocyte Editing % 500 ng/ml": 10.32}]}, {"system": "ANGPTL3 gene", "experiment": "ANGPTL3 gRNA/SpCas9 editing in primary human hepatocytes (Table 3)", "type": "cell-based", "procedure": "as §1, §2", "units": {"Human Primary Hepatocyte Editing % 100 ng/ml": "%", "Human Primary Hepatocyte Editing % 500 ng/mL": "%"}, "values": [{"molecule": "B1", "Human Primary Hepatocyte Editing % 100 ng/ml": 6.00, "Human Primary Hepatocyte Editing % 500 ng/mL": 19.97}, {"molecule": "B2", "Human Primary Hepatocyte Editing % 100 ng/ml": 3.78, "Human Primary Hepatocyte Editing % 500 ng/mL": 16.33}, {"molecule": "B3", "Human Primary Hepatocyte Editing % 100 ng/ml": 7.08, "Human Primary Hepatocyte Editing % 500 ng/mL": 16.55}, {"molecule": "B4", "Human Primary Hepatocyte Editing % 100 ng/ml": 4.45, "Human Primary Hepatocyte Editing % 500 ng/mL": 13.82}, {"molecule": "B5", "Human Primary Hepatocyte Editing % 100 ng/ml": 5.04, "Human Primary Hepatocyte Editing % 500 ng/mL": 16.27}, {"molecule": "B6", "Human Primary Hepatocyte Editing % 100 ng/ml": 6.73, "Human Primary Hepatocyte Editing % 500 ng/mL": 15.21}, {"molecule": "B7", "Human Primary Hepatocyte Editing % 100 ng/ml": 5.77, "Human Primary Hepatocyte Editing % 500 ng/mL": 18.74}, {"molecule": "B8", "Human Primary Hepatocyte Editing % 100 ng/ml": 10.29, "Human Primary Hepatocyte Editing % 500 ng/mL": 25.39}, {"molecule": "B9", "Human Primary Hepatocyte Editing % 100 ng/ml": 7.51, "Human Primary Hepatocyte Editing % 500 ng/mL": 17.09}, {"molecule": "B10", "Human Primary Hepatocyte Editing % 500 ng/mL": 18.64}, {"molecule": "B11", "Human Primary Hepatocyte Editing % 100 ng/ml": 15.25, "Human Primary Hepatocyte Editing % 500 ng/mL": 28.39}, {"molecule": "B12", "Human Primary Hepatocyte Editing % 100 ng/ml": 11.44, "Human Primary Hepatocyte Editing % 500 ng/mL": 29.70}, {"molecule": "B13", "Human Primary Hepatocyte Editing % 100 ng/ml": 5.80, "Human Primary Hepatocyte Editing % 500 ng/mL": 14.87}]}]}
